From article PMC10248553 (The Journal of Biological Chemistry, 2023)
Where no end group is shown, it is not given here.

B1: SPRED2 (104–181) (domain or fragment)
chain: SPADARAFDRGVRKAIEDLIEGSTTSSSTIHNEAELGDDDVFTTATDSSSNSSQKREQPTRTISSPTSCEHRRIYTLG
B2: SPRED2 (11–181) (domain or fragment)
chain: SYIVRVKAVVMTRDDSSGGWFPQEGGGISRVGVCKVMHPEGNGRSGFLIHGERQKDKLVVLECYVRKDLVYTKANPTFHHWKVDNRKFGLTFQSPADARAFDRGVRKAIEDLIEGSTTSSSTIHNEAELGDDDVFTTATDSSSNSSQKREQPTRTISSPTSCEHRRIYTLG

How the values were obtained:
RSK2 (44–367) = RSK2 (44–367) (human, UniProt P51812 44-367); assay: ITC
RSK2 (46–346) = RSK2 (46–346) (human, UniProt P51812 46-346); assay: crystal structure

Binder	Kd (RSK2 (44–367)) [µM]	binding result (RSK2 (44–367))	binding result (RSK2 (46–346))
B1	~9		
Ac-GDDDVFTTATDS [SPRED2 (140–151) peptide]	36		
B2		binds	
Ac-STIHNEAELGDDDVFTTATDSSSNSSQKRE [SPRED2 (131–160) peptide]		binds	binds
Ac-ELGDDDVFTTATDSSS [SPRED2 (138–153) peptide]	20		
